Assay results: US20130019326

What was measured:
[1] = system: FLAG-PPAR gamma, wild type
[2] = system: Rb protein (Cell Signaling Technology)
[3] = system: purified histone H1 (Millipore)

Substance	in vitro CDK kinase assay, phosphorylation of the substrate [1]	in vitro CDK5 kinase assay, phosphorylation of the substrate [2]	in vitro CDK kinase assay, phosphorylation of the substrate [3]	in vitro CDK kinase assay, phosphorylation of the substrate (FLAG-PPAR gamma S273A)
active cdk1/cdc2 kinase	Other members of the cdk protein family did not phosphorylate PPAR gamma			
active cdk2/cyclin A kinase	Other members of the cdk protein family did not phosphorylate PPAR gamma			
active cdk2/cyclin E kinase	Other members of the cdk protein family did not phosphorylate PPAR gamma			
active cdk4/cyclin D1 kinase	Other members of the cdk protein family did not phosphorylate PPAR gamma			
active cdk5/p35 kinase	The cdk5 site in murine PPAR gamma can be phosphorylated when incubated in vitro with cdk5 and its activating cofactor p35	incubation with rosiglitazone does not inhibit the ability of cdk5 to phosphorylate the Rb protein	PPAR gamma is phosphorylated as efficiently under these conditions as is histone H1, a known substrate of the cdk5/p35 complex	Mutation of serine 273 to alanine completely blocks phosphorylation of PPAR gamma
